Consider 14 molecules from patent publication US20230055408A1 (JIANGSU HENGRUI MEDICINE, published 2023).

Assay [1] addresses T1, monkey CEA expressed on CHO cell surface (cynomolgus monkey).
T1 construct: also called cynoCEA-CHO; monkey CEA proteins on the cell surface
T1 chain: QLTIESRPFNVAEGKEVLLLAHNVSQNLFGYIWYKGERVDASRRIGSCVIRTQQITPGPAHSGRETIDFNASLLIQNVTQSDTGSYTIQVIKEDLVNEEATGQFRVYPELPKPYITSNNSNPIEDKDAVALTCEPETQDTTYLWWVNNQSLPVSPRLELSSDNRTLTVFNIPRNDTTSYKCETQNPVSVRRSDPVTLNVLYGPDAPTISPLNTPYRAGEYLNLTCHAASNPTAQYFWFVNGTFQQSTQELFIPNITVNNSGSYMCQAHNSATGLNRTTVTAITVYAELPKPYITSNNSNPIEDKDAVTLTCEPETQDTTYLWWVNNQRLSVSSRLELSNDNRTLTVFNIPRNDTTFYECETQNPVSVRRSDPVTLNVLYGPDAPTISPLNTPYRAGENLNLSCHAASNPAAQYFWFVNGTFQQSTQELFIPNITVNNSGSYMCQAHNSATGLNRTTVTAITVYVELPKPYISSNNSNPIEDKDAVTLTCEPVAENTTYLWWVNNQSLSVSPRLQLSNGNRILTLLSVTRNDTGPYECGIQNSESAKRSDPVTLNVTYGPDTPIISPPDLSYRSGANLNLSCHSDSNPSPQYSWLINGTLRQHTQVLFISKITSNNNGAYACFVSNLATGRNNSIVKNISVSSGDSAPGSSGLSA
In words: FACS, cynoCEA-CHO cells. The procedure: (§1) In order to detect the binding of the antibody to the CEA protein on the cell surface, the binding activity of the antibody was determined by FACS using cells expressing CEA on the cell surface. Cells were harvested and centrifuged at 400 g at 4° C. for 5 min. Pre-cooled PBS containing FBS at final concentration 10% was added, and the mixture was centrifuged at 400 g at 4° C. for 5 min; the procedures were repeated twice. The cells were seeded into a 96-well plate at 10⁵ cells/well, and 100 μL of gradient diluted antibody solution was added to each well. The plate was incubated at 4° C. for 60 min and centrifuged, and the supernatant was removed. 250 μL of pre-cooled PBS containing FBS at final concentration 10% was added to each well to resuspend the cells, and the suspension was centrifuged at 400 g at 4° C. for 5 min, followed by the removal of the supernatant; the procedures were repeated twice. 50 μL of 1:200 diluted secondary antibody Alexa Fluor@488 goat anti-human IgG (H+L) (Lifetechologies, Cat #A11013) was added. […] 250 μL of pre-cooled PBS containing FBS at final concentration 10% was added to each cell to resuspend the cells, and the suspension was centrifuged at 400 g at 4° C. for 5 min; the procedures were repeated twice. 100 μL of pre-cooled PBS was added to each well to resuspend the cells. The plate was analyzed by a flow cytometer (BD, FACSverse) for fluorescence signal values.

In assay [2] the target is T2, human CEA protein on the cell surface (human, UniProt P06731 35-685).
T2 construct: whole, on cells; also called CEACAM-5; CD66e
T2 sequence (looked up): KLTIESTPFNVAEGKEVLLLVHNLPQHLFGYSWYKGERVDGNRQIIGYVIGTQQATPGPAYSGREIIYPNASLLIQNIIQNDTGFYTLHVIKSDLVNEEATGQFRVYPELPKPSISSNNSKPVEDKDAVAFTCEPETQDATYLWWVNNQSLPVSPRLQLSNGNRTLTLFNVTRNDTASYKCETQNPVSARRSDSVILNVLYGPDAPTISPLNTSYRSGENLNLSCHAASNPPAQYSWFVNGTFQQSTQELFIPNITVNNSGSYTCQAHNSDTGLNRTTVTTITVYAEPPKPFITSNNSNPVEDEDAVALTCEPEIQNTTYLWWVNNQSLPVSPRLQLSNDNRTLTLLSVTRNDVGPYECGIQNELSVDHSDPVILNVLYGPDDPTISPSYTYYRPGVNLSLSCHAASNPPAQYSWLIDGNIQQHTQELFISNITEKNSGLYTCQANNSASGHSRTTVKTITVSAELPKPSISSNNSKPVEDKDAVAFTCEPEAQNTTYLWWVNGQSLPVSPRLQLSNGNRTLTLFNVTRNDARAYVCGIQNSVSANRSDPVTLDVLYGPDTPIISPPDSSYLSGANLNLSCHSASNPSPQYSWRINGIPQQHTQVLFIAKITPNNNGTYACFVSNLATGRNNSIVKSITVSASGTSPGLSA
The experiment in a line: FACS, MKN45 cells. The procedure: as §1
In general terms: A flow cytometer gives signals particle by particle.

B1: Hu103-11 (antibody, human IgG1, lambda)
heavy: not shown
light: ELVLTQSPSASASLGASVKLTCTLSSQHSTYTIEWYQQQPEKGPRYVMELKKDGSHSTGDGIPDRFSGSSSGAERYLTISSLQSEDEADYYCGVGNTIKEQFVYVFGGGTKLTVLGQPKANPTVTLFPPSSEELQANKATLVCLISDFYPGAVTVAWKADGSPVKAGVETTKPSKQSNNKYAASSYLSLTPEQWKSHRSYSCQVTHEGSTVEKTVAPTECS
Consider B1, for which the EC50 in assay [1] was 0.92 nM; in assay [2], 2.71 nM.

B2: Hu103-2 (antibody, human IgG1, lambda, V domains shown)
VH: EVQLVQSGSELKKPGASVKVSCKASGYTFTTYGVIWVRQAPGQGLEWMGWINTYSGVPTYADDFKGRFVFSLDTSVSTAYLQISSLKAEDTAVYYCARKKTLTTVTPWFAYWGQGTLVTVSS
VL: ELVLTQSPSASASLGASVKLTCTLSSQHSTYTIEWYQQQPEKGPRYLMELKKDGSHSTGDGIPDRFSGSSSGAERYLTISSLQSEDEADYYCGVGNTIKEQFVYVFGGGTKLTVLG
For B2, the EC50 in assay [1] came out at 1.26 nM; in assay [2], 2.18 nM.

B3: Hu103-1 (antibody, human IgG1, lambda, V domains shown)
VH: EVQLVQSGSELKKPGASVKVSCKASGYTFTTYGVIWVRQAPGQGLEWMGWINTYSGVPTYADDFKGRFVFSLDTSVSTAYLQISSLKAEDTAVYYCARKKTLTTVTPWFAYWGQGTLVTVSS
VL: ELVLTQSPSASASLGASVKLTCTLSSQHSTYTIEWHQQQPEKGPRYLMELKKDGSHSTGDGIPDRFSGSSSGAERYLTISSLQSEDEADYYCGVGNTIKEQFVYVFGGGTKLTVLG
Consider B3, for which the EC50 in assay [1] was 2.49 nM; in assay [2], 2.37 nM.

B4: Hu63-5 (antibody, human IgG1, kappa, V domains shown)
VH: EVQLVQSGAEVKKPGASVKVSCKASGYTFTDFYMNWVRQAPGQGLEWMGDIFPKNGNTDYNRKFKDRVTLTVDKSTSTVYMELSSLRSEDTAVYYCARSGYGNYVFDYWGQGTLVTVSS
VL: DVQMTQSPSSLSASVGDRVTITCRTSQDINIYLNWYQQKPGKAPKLLIYYRSGLLSGVPSRFSGSGSGTDYTLTISSLQPEDFATYYCQQGNTLPPTFGGGTKVEIKR
In the case of B4, the EC50 is 2.14 nM in assay [1] and 3.7 nM in assay [2].

B5: Hu63-12 (antibody, human IgG1, kappa, V domains shown)
VH: EVQLVQSGAEVKKPGASVKVSCKASGYTFTDFYMNWVRQAPGQGLEWIGDIFPKNGNTDYNRKFKDKATLTVDKSTSTVYMEFRSLRSEDTAVYYCARSGYGNYVFDYWGQGTLVTVSS
VL: DVQMTQSPSSLSASVGDRVTITCRTSQDINIYLNWYQQKPGGAVKLLIYYRSGLLSGVPSRFSGSGSGTDYTLTISSLQPEDFATYYCQQGNTLPPTFGGGTKVEIKR
Consider B5, for which the EC50 in assay [1] worked out at 2.23 nM; in assay [2], 4.04 nM.

B6: Hu63-3 (antibody, human IgG1, kappa, V domains shown)
VH: EVQLVQSGAEVKKPGASVKVSCKASGYTFTDFYMNWVRQAPGQGLEWMGDIFPKNGNTDYNRKFKDRVTMTRDTSTSTVYMELSSLRSEDTAVYYCARSGYGNYVFDYWGQGTLVTVSS
VL: DVQMTQSPSSLSASVGDRVTITCRTSQDINIYLNWYQQKPGGAVKLLIYYRSGLLSGVPSRFSGSGSGTDYTLTISSLQPEDFATYYCQQGNTLPPTFGGGTKVEIKR
Regarding B6, the EC50 was 2.01 nM in assay [1] and 3.56 nM in assay [2].

B7: Hu63-10 (antibody, human IgG1, kappa, V domains shown)
VH: EVQLVQSGAEVKKPGASVKVSCKASGYTFTDFYMNWVRQAPGQGLEWIGDIFPKNGNTDYNRKFKDKATLTVDKSTSTVYMEFRSLRSEDTAVYYCARSGYGNYVFDYWGQGTLVTVSS
VL: DIQMTQSPSSLSASVGDRVTITCRTSQDINIYLNWYQQKPGKAPKLLIYYRSGLLSGVPSRFSGSGSGTDFTLTISSLQPEDFATYYCQQGNTLPPTFGGGTKVEIKR
Consider B7, for which the results for the EC50 in assay [1] and in assay [2] were 1.88 nM and 4.95 nM, respectively.

B8: Hu63-1 (antibody, human IgG1, kappa, V domains shown)
VH: EVQLVQSGAEVKKPGASVKVSCKASGYTFTDFYMNWVRQAPGQGLEWMGDIFPKNGNTDYNRKFKDRVTMTRDTSTSTVYMELSSLRSEDTAVYYCARSGYGNYVFDYWGQGTLVTVSS
VL: DIQMTQSPSSLSASVGDRVTITCRTSQDINIYLNWYQQKPGKAPKLLIYYRSGLLSGVPSRFSGSGSGTDFTLTISSLQPEDFATYYCQQGNTLPPTFGGGTKVEIKR
Regarding B8, it took 4.23 nM to reach a half-maximal effect in assay [2] (EC50).

B9: Hu63-4 (antibody, human IgG1, kappa, V domains shown)
VH: EVQLVQSGAEVKKPGASVKVSCKASGYTFTDFYMNWVRQAPGQGLEWMGDIFPKNGNTDYNRKFKDRVTLTVDKSTSTVYMELSSLRSEDTAVYYCARSGYGNYVFDYWGQGTLVTVSS
VL: DIQMTQSPSSLSASVGDRVTITCRTSQDINIYLNWYQQKPGKAPKLLIYYRSGLLSGVPSRFSGSGSGTDFTLTISSLQPEDFATYYCQQGNTLPPTFGGGTKVEIKR
As to B9, the values for the EC50 in assay [1] and in assay [2] were 1.95 nM and 5.18 nM, respectively.

B10: Hu63-11 (antibody, human IgG1, kappa, V domains shown)
VH: EVQLVQSGAEVKKPGASVKVSCKASGYTFTDFYMNWVRQAPGQGLEWIGDIFPKNGNTDYNRKFKDKATLTVDKSTSTVYMEFRSLRSEDTAVYYCARSGYGNYVFDYWGQGTLVTVSS
VL: DVQMTQSPSSLSASVGDRVTITCRTSQDINIYLNWYQQKPGKAPKLLIYYRSGLLSGVPSRFSGSGSGTDYTLTISSLQPEDFATYYCQQGNTLPPTFGGGTKVEIKR
For the molecule B10, the EC50 came out at 2.29 nM in assay [1] and 4.35 nM in assay [2].

B11: Hu63-6 (antibody, human IgG1, kappa, V domains shown)
VH: EVQLVQSGAEVKKPGASVKVSCKASGYTFTDFYMNWVRQAPGQGLEWMGDIFPKNGNTDYNRKFKDRVTLTVDKSTSTVYMELSSLRSEDTAVYYCARSGYGNYVFDYWGQGTLVTVSS
VL: DVQMTQSPSSLSASVGDRVTITCRTSQDINIYLNWYQQKPGGAVKLLIYYRSGLLSGVPSRFSGSGSGTDYTLTISSLQPEDFATYYCQQGNTLPPTFGGGTKVEIKR
Turning to B11, the EC50 amounted to 2.88 nM in assay [1] and 3.71 nM in assay [2].

B12: Hu63-9 (antibody, human IgG1, kappa, V domains shown)
VH: EVQLVQSGAEVKKPGASVKVSCKASGYTFTDFYMNWVRQAPGQGLEWIGDIFPKNGNTDYNRKFKDRATLTVDKSTSTVYMEFSSLRSEDTAVYYCARSGYGNYVFDYWGQGTLVTVSS
VL: DVQMTQSPSSLSASVGDRVTITCRTSQDINIYLNWYQQKPGGAVKLLIYYRSGLLSGVPSRFSGSGSGTDYTLTISSLQPEDFATYYCQQGNTLPPTFGGGTKVEIKR
As for B12, the EC50 in assay [1] came out at 2.47 nM; in assay [2], 4.87 nM.

B13: Hu63-8 (antibody, human IgG1, kappa, V domains shown)
VH: EVQLVQSGAEVKKPGASVKVSCKASGYTFTDFYMNWVRQAPGQGLEWIGDIFPKNGNTDYNRKFKDRATLTVDKSTSTVYMEFSSLRSEDTAVYYCARSGYGNYVFDYWGQGTLVTVSS
VL: DVQMTQSPSSLSASVGDRVTITCRTSQDINIYLNWYQQKPGKAPKLLIYYRSGLLSGVPSRFSGSGSGTDYTLTISSLQPEDFATYYCQQGNTLPPTFGGGTKVEIKR
In the case of B13, the figures for the EC50 in assay [1] and in assay [2] were 2.43 nM and 3.24 nM, respectively.

B14: Hu63-2 (antibody, human IgG1, kappa, V domains shown)
VH: EVQLVQSGAEVKKPGASVKVSCKASGYTFTDFYMNWVRQAPGQGLEWMGDIFPKNGNTDYNRKFKDRVTMTRDTSTSTVYMELSSLRSEDTAVYYCARSGYGNYVFDYWGQGTLVTVSS
VL: DVQMTQSPSSLSASVGDRVTITCRTSQDINIYLNWYQQKPGKAPKLLIYYRSGLLSGVPSRFSGSGSGTDYTLTISSLQPEDFATYYCQQGNTLPPTFGGGTKVEIKR
With B14, in assay [2], a half-maximal response (EC50) required 3.73 nM.

Usually EC50 stands for the concentration needed to bring the measured effect to its halfway point.
